Positions count from the first letter of the chain named. Where two headings read alike, the source gives them in different places.

By EC50 is commonly meant the concentration giving half of the maximal effect. As usually defined, the Kd is the equilibrium constant for the complex coming apart.

Experiment [1] deals with T1, FcRn-p3 fusion protein (human, UniProt P55899 24-297; P61769 21-119).
T1 construct: baculovirus expressed; coated on ELISA wells; not shown: amino terminal part of bacteriophage p3 protein and CVDE protein
The experiment in a line: phage ELISA pH6 (est.). (In general: In an ELISA, binding on a coated surface is turned into a signal by an enzyme label.)

The target in experiment [2] is T1, FcRn-p3 fusion protein. Put plainly: phage ELISA pH6.
The target of experiment [3] is T1, FcRn-p3 fusion protein. The experiment in a line: phage ELISA pH6. This is another data set of the same source.
Experiment [4] concerns the target T1, FcRn-p3 fusion protein. Put plainly: phage ELISA pH6 (est.). The source holds these as a separate data set.
Experiment [5] deals with T1, FcRn-p3 fusion protein. Put plainly: phage ELISA pH6 (est.). The source holds these as a separate data set.
The target of experiment [6] is T1, FcRn-p3 fusion protein. The experiment in a line: ELISA pH6, soluble Fc on coated FcRn-p3.
The target in experiment [7] is T2, recombinant soluble human FcRn (human, UniProt P55899 24-297; P61769 21-119).
T2 construct: amine-coupled to the SPR chip
The experiment in a line: SPR pH6, immobilized FcRn, steady state.

For experiment [8], the target named is T2, recombinant soluble human FcRn. The experiment in a line: SPR pH6, immobilized FcRn, steady state. The source holds these as a separate data set.
Experiment [9] has as its target T1, FcRn-p3 fusion protein. The experiment in a line: ELISA pH6, soluble Fc on coated FcRn-p3. The source holds these as a separate data set.
For experiment [10], the target named is T1, FcRn-p3 fusion protein. Put plainly: phage ELISA pH6. This is another data set of the same source.
Experiment [11] concerns the target T1, FcRn-p3 fusion protein. Put plainly: phage ELISA pH6. The source holds these as a separate data set.

T2 sequence (P55899 24-297, chain 1 of 2): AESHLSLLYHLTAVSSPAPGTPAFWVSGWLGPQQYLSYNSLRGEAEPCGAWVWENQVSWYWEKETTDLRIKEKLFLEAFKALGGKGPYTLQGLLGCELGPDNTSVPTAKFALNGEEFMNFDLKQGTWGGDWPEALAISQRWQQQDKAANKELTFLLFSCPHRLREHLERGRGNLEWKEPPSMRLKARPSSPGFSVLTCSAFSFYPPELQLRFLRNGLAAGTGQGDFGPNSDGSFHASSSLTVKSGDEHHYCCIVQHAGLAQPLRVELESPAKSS
T2 sequence (P61769 21-119, chain 2 of 2): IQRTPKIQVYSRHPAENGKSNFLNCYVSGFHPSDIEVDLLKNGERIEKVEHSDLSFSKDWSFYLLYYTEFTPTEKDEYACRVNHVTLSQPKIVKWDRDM
T1 sequence (P55899 24-297, chain 1 of 2): as the sequence (P55899 24-297, chain 1 of 2) above
T1 sequence (P61769 21-119, chain 2 of 2): as the sequence (P61769 21-119, chain 2 of 2) above

B1: C6A_69 (other)
chain: CPPCPAPELLGGPSVFLFPPKPKDTLMISRTPEVTCVVVDVSHEDPEVKFNWYVDGVEVHNAKTKPREEQYNSTYRVVSVLAVLHQDWLDGKEYKCKVSNKALPVPIEKTISKAKGQPREPQVYTLPPSRDELTKNQVSLTCLVKGFYPSDIAVEWVSNGQPETNYKTTPPVLDSDGSFFLYSKLTVDKSRWQQGNVFSCSVMHEALHYHYTQKSLSLSPGK
notes: EU numbering
In the case of B1, the Ratio/FWT in experiment [1] stood at 28.4 fold. The Ratio/Fc-H in experiment [2] and in experiment [3] was 8.9 fold throughout. Also, the Ratio/Fc-WT in experiment [4] was 28.4 fold. Also, the “phage-ELISA ratio/WT” value in experiment [5] was 28.4 fold.

B2: T5A_81 (soluble recombinant Fc polypeptide) (other)
chain: B1 chain with V39E, A82T, D90N, V105A, A153V, V157E, T164N, R191K, Y209N
notes: EU numbering; E. coli periplasmic expression; not shown: C-terminal 6xHis tag and V5 tag
As for B2, in experiment [6], the 50% effective concentration (EC50) came out at 145 nM and the “ELISA ratio/Fc-WT (Fc-WT EC50 / variant EC50)” value amounted to 3 fold. Moreover, in experiment [7], the Kd was determined as 22.7 nM and the “SPR Ratio/Fc-WT (Fc-WT Kd / variant Kd)” value turned out to be 1.3 fold.

B3: T5A_58 (soluble recombinant Fc polypeptide) (other)
chain: B1 chain with F16L, V39E, A82P, D90N, V105A, A153V, V157E, T164N, H208R, Y209N
notes: as for B2
For the molecule B3, in [7], the Kd is 15.4 nM.

B4: C6A_69 (soluble recombinant Fc polypeptide) (other)
chain: B1 chain
notes: as for B2
Take B4: in experiment [6], the midpoint of the response, the EC50, lay at 3.7 nM and the “ELISA ratio/Fc-WT (Fc-WT EC50 / variant EC50)” value came out at 124 fold. In addition, in experiment [7], the dissociation constant (Kd) was determined as 7.2 nM and the “SPR Ratio/Fc-WT (Fc-WT Kd / variant Kd)” value was found to be 4.2 fold.

B5: S3A_07 (soluble recombinant Fc polypeptide) (other)
chain: B1 chain with V39E, A82T, D90N, V105A, A153V, V157G, T164N, Y209N
notes: as for B2
On to B5, for which the “SPR Ratio/Fc-WT (Fc-WT Kd / variant Kd)” value in experiment [8] was 5.2 fold. Besides, the “Fc-rec-ELISA Ratio/WT” value in experiment [9] came to 25.3 fold.

B6: T5A_78 (soluble recombinant Fc polypeptide) (other)
chain: B1 chain with V39E, A82T, D90N, V105A, V157E, Q161R, T164N, P171L, Y209S, K214R
notes: as for B2
As to B6, in experiment [7], the dissociation constant (Kd) came out at 12.4 nM.

B7: T5A_81 (other)
chain: B1 chain with V39E, A82T, D90N, V105A, A153V, V157E, T164N, R191K, Y209N
notes: EU numbering
As to B7, the Ratio/FWT in experiment [1] is 14.9 fold. For the same molecule, the Ratio/Fc-H in experiment [2] and in [3] was 4.6 fold throughout. Moreover, in [4], the Ratio/Fc-WT is 14.9 fold. Moreover, the “phage-ELISA ratio/WT” value in experiment [5] stood at 14.9 fold.

B8: S3A_07 (other)
chain: B1 chain with V39E, A82T, D90N, V105A, A153V, V157G, T164N, Y209N
notes: EU numbering
Turning to B8, the “phage-ELISA Ratio/Fc-WT” value in experiment [10] was 3.5 fold. In experiment [11], the Ratio/Fc-WT came out at 3.5 fold.

B9: C6A_72 (other)
chain: B1 chain with T25A, A82T, D90N, V105A, V157E, T164K
notes: EU numbering
Turning to B9, in [1], the Ratio/FWT was 25.7 fold. For the same molecule, the Ratio/Fc-H in experiment [2] and in experiment [3] was 8 fold throughout. In addition, the Ratio/Fc-WT in [4] stood at 25.7 fold. For the same molecule, the “phage-ELISA ratio/WT” value in experiment [5] came out at 25.7 fold.

B10: C6A_72 (soluble recombinant Fc polypeptide) (other)
chain: B1 chain with T25A, A82T, D90N, V105A, V157E, T164K
notes: as for B2
In the case of B10, in experiment [6], the response was half-maximal at 7.8 nM (EC50) and the “ELISA ratio/Fc-WT (Fc-WT EC50 / variant EC50)” value was 59 fold. Further, in experiment [7], the Kd came out at 12.4 nM and the “SPR Ratio/Fc-WT (Fc-WT Kd / variant Kd)” value was 2.4 fold.

B11: C6A_74 (soluble recombinant Fc polypeptide) (other)
chain: B1 chain with V34I, A82T, V105A, V157E, T164N
notes: as for B2
Consider B11, for which, in [6], a half-maximal response (EC50) required 7.3 nM. The Kd in experiment [7] came out at 5.9 nM.

B12: T5A_94 (soluble recombinant Fc polypeptide) (other)
chain: B1 chain with V39E, A82T, D90N, V105A, A153T, V157E, T164N, P171L, Y209N
notes: as for B2
The molecule B12 registered an EC50 in [6] of 166 nM. Further, in experiment [7], the Kd is 13.7 nM.
